Assay results: the supplement of paper PMC5998384

What was measured:
[1] = tested on: HeLa Kyoto; assay: solubility in G1/S (NP-40 vs SDS abundance) (log2 ratio); higher = more soluble; conditions: cell cycle stage: G1/S
[2] = tested on: HeLa Kyoto; assay: thermal stability score vs G1/S (z-score of summed log2 fold changes over temperatures); higher = more thermally stable than in G1/S
[3] = tested on: HeLa Kyoto; assay: melting temperature (median over replicates), in situ; higher = more thermally stable
[4] = tested on: HeLa Kyoto; assay: solubility change mitosis vs G1/S (difference of NP-40 vs SDS log2 ratios) (log2 ratio difference); higher = more soluble in mitosis
[5] = cell cycle stage: early G1 (4.5 h after nocodazole release)
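Wherever melting temperature (median over replicates), in situ is given: HeLa Kyoto cells synchronized by double thymidine or nocodazole block, proteins quantified by TMT10plex mass spectrometry, three independent biological replicates.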
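Wherever solubility change mitosis vs G1/S (difference of NP-40 vs SDS log2 ratios) is given: synchronized HeLa Kyoto cells (double thymidine block for G1/S, nocodazole release for mitosis), protein amounts in NP-40 versus SDS lysates quantified by mass spectrometry, three biological replicates.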
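Wherever solubility in G1/S (NP-40 vs SDS abundance) is given: HeLa Kyoto cells arrested at G1/S by double thymidine block, proteins quantified by TMT10plex mass spectrometry in mild NP-40 versus SDS extracts, three biological replicates.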
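Wherever thermal stability score vs G1/S (z-score of summed log2 fold changes over temperatures) is given: synchronized HeLa Kyoto cells, proteins quantified by TMT10plex mass spectrometry, three biological replicates, mitosis taken 0.5 h after nocodazole release, G1/S directly after double thymidine block.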

Substance | solubility in G1/S (log2) [1] | thermal stability score [2, 5] | thermal stability score ([2]; cell cycle stage: mitosis) | melting temperature ([3]; cell cycle stage: G1/S) [°C] | melting temperature ([3]; cell cycle stage: mitosis) [°C] | solubility change mitosis (log2) [4]
MQGPPLLTAAHLLCVCTAALAVAPGPRFLVTAPGIIRPGGNVTIGVELLEHCPSQVTVKAELLKTASNLTVSVLEAEGVFEKGSFKTLTLPSLPLNSADEIYELRVTGRTQDEILFSNSTRLSFETKRISVFIQTDKALYKPKQEVKFRIVTLFSDFKPYKTSLNILIKDPKSNLIQQWLSQQSDLGVISKTFQLSSHPILGDWSIQVQVNDQTYYQSFQVSEYVLPKFEVTLQTPLYCSMNSKHLNGTITAKYTYGKPVKGDVTLTFLPLSFWGKKKNITKTFKINGSANFSFNDEEMKNVMDSSNGLSEYLDLSSPGPVEILTTVTESVTGISRNVSTNVFFKQHDYIIEFFDYTTVLKPSLNFTATVKVTRADGNQLTLEERRNNVVITVTQRNYTEYWSGSNSGNQKMEAVQKINYTVPQSGTFKIEFPILEDSSELQLKAYFLGSKSSMAVHSLFKSPSKTYIQLKTRDENIKVGSPFELVVSGNKRLKELSYMVVSRGQLVAVGKQNSTMFSLTPENSWTPKACVIVYYIEDDGEIISDVLKIPVQLVFKNKIKLYWSKVKAEPSEKVSLRISVTQPDSIVGIVAVDKSVNLMNASNDITMENVVHELELYNTGYYLGMFMNSFAVFQECGLWVLTDANLTKDYIDGVYDNAEYAERFMEENEGHIVDIHDFSLGSSPHVRKHFPETWIWLDTNMGYRIYQEFEVTVPDSITSWVATGFVISEDLGLGLTTTPVELQAFQPFFIFLNLPYSVIRGEEFALEITIFNYLKDATEVKVIIEKSDKFDILMTSNEINATGHQQTLLVPSEDGATVLFPIRPTHLGEIPITVTALSPTASDAVTQMILVKAEGIEKSYSQSILLDLTDNRLQSTLKTLSFSFPPNTVTGSERVQITAIGDVLGPSINGLASLIRMPYGCGEQNMINFAPNIYILDYLTKKKQLTDNLKEKALSFMRQGYQRELLYQREDGSFSAFGNYDPSGSTWLSAFVLRCFLEADPYIDIDQNVLHRTYTWLKGHQKSNGEFWDPGRVIHSELQGGNKSPVTLTAYIVTSLLGYRKYQPNIDVQESIHFLESEFSRGISDNYTLALITYALSSVGSPKAKEALNMLTWRAEQEGGMQFWVSSESKLSDSWQPRSLDIEVAAYALLSHFLQFQTSEGIPIMRWLSRQRNSLGGFASTQDTTVALKALSEFAALMNTERTNIQVTVTGPSSPSPVKFLIDTHNRLLLQTAELAVVQPTAVNISANGFGFAICQLNVVYNVKASGSSRRRRSIQNQEAFDLDVAVKENKDDLNHVDLNVCTSFSGPGRSGMALMEVNLLSGFMVPSEAISLSETVKKVEYDHGKLNLYLDSVNETQFCVNIPAVRNFKVSNTQDASVSIVDYYEPRRQAVRSYNSEVKLSSCDLCSDVQGCRPCEDGASGSHHHSSVIFIFCFKLLYFMELWL [CD109] | -0.179 | -0.942 | 1.58 | 57.6 | 63.2 | -0.257
MSRDRFRSRGGGGGGFHRRGGGGGRGGLHDFRSPPPGMGLNQNRGPMGPGPGQSGPKPPIPPPPPHQQQQQPPPQQPPPQQPPPHQPPPHPQPHQQQQPPPPPQDSSKPVVAQGPGPAPGVGSAPPASSSAPPATPPTSGAPPGSGPGPTPTPPPAVTSAPPGAPPPTPPSSGVPTTPPQAGGPPPPPAAVPGPGPGPKQGPGPGGPKGGKMPGGPKPGGGPGLSTPGGHPKPPHRGGGEPRGGRQHHPPYHQQHHQGPPPGGPGGRSEEKISDSEGFKANLSLLRRPGEKTYTQRCRLFVGNLPADITEDEFKRLFAKYGEPGEVFINKGKGFGFIKLESRALAEIAKAELDDTPMRGRQLRVRFATHAAALSVRNLSPYVSNELLEEAFSQFGPIERAVVIVDDRGRSTGKGIVEFASKPAARKAFERCSEGVFLLTTTPRPVIVEPLEQLDDEDGLPEKLAQKNPMYQKERETPPRFAQHGTFEYEYSQRWKSLDEMEKQQREQVEKNMKDAKDKLESEMEDAYHEHQANLLRQDLMRRQEELRRMEELHNQEMQKRKEMQLRQEEERRRREEEMMIRQREMEEQMRRQREESYSRMGYMDPRERDMRMGGGGAMNMGDPYGSGGQKFPPLGGGGGIGYEANPGVPPATMSGSMMGSDMRTERFGQGGAGPVGGQGPRGMGPGTPAGYGRGREEYEGPNKKPRF [SFPQ] | -0.264 | 4.77 | 7.88 | 47.7 | 48.9 | 0.67
MASSAQSGGSSGGPAVPTVQRGIIKMVLSGCAIIVRGQPRGGPPPERQINLSNIRAGNLARRAAATQPDAKDTPDEPWAFPAREFLRKKLIGKEVCFTIENKTPQGREYGMIYLGKDTNGENIAESLVAEGLATRREGMRANNPEQNRLSECEEQAKAAKKGMWSEGNGSHTIRDLKYTIENPRHFVDSHHQKPVNAIIEHVRDGSVVRALLLPDYYLVTVMLSGIKCPTFRREADGSETPEPFAAEAKFFTESRLLQRDVQIILESCHNQNILGTILHPNGNITELLLKEGFARCVDWSIAVYTRGAEKLRAAERFAKERRLRIWRDYVAPTANLDQKDKQFVAKVMQVLNADAIVVKLNSGDYKTIHLSSIRPPRLEGENTQDKNKKLRPLYDIPYMFEAREFLRKKLIGKKVNVTVDYIRPASPATETVPAFSERTCATVTIGGINIAEALVSKGLATVIRYRQDDDQRSSHYDELLAAEARAIKNGKGLHSKKEVPIHRVADISGDTQKAKQFLPFLQRAGRSEAVVEYVFSGSRLKLYLPKETCLITFLLAGIECPRGARNLPGLVQEGEPFSEEATLFTKELVLQREVEVEVESMDKAGNFIGWLHIDGANLSVLLVEHALSKVHFTAERSSYYKSLLSAEEAAKQKKEKVWAHYEEQPVEEVMPVLEEKERSASYKPVFVTEITDDLHFYVQDVETGTQLEKLMENMRNDIASHPPVEGSYAPRRGEFCIAKFVDGEWYRARVEKVESPAKIHVFYIDYGNREVLPSTRLGTLSPAFSTRVLPAQATEYAFAFIQVPQDDDARTDAVDSVVRDIQNTQCLLNVEHLSAGCPHVTLQFADSKGDVGLGLVKEGLVMVEVRKEKQFQKVITEYLNAQESAKSARLNLWRYGDFRADDADEFGYSR [SND1] | -0.0826 | 0.34 | 3.69 | 47.9 | 48.1 | 0.0116
DST | -0.363 | 0.147 | 1.16 | 49.1 | 49.2 | 0.045
MEPEAPRRRHTHQRGYLLTRNPHLNKDLAFTLEERQQLNIHGLLPPSFNSQEIQVLRVVKNFEHLNSDFDRYLLLMDLQDRNEKLFYRVLTSDIEKFMPIVYTPTVGLACQQYSLVFRKPRGLFITIHDRGHIASVLNAWPEDVIKAIVVTDGERILGLGDLGCNGMGIPVGKLALYTACGGMNPQECLPVILDVGTENEELLKDPLYIGLRQRRVRGSEYDDFLDEFMEAVSSKYGMNCLIQFEDFANVNAFRLLNKYRNQYCTFNDDIQGTASVAVAGLLAALRITKNKLSDQTILFQGAGEAALGIAHLIVMALEKEGLPKEKAIKKIWLVDSKGLIVKGRASLTQEKEKFAHEHEEMKNLEAIVQEIKPTALIGVAAIGGAFSEQILKDMAAFNERPIIFALSNPTSKAECSAEQCYKITKGRAIFASGSPFDPVTLPNGQTLYPGQGNNSYVFPGVALGVVACGLRQITDNIFLTTAEVIAQQVSDKHLEEGRLYPPLNTIRDVSLKIAEKIVKDAYQEKTATVYPEPQNKEAFVRSQMYSTDYDQILPDCYSWPEEVQKIQTKVDQ [ME1] | 0.144 | -1.35 | -1.4 | 56.5 | 56.7 | -0.171
